Consider four molecules from doi:10.1101/2021.02.27.433189.

The experiment addresses AMPAR subunit GluA1, flip isoform (UniProt P19490).

B1: ncAA-tagged TARP γ2 S44* with eGFP in the C-tail (natural protein)
chain: MGLFDRGVQMLLTTVGAFAAFSLMTIAVGTDYWLYSRGVCKTKKVSENETSKKNEEVMTHSGLWRTCCLEGNFKGLCKQIDHFPEDADYEADTAEYFLRAVRASSIFPILSVILLFMGGLCIAASEFYKTRHNIILSAGIFFVSAGLSNIIGIIVYISANAGDPSKSDSKKNSYSYGWSFYFGALSFIIAEMVGVLAVHMFIDRHKQLRATARATDYLQASAITRIPSYRYRYQRRSRSSSRSTEPSHSRDASPVGVKGFNTLPSTEISMYTLSRDPLKAATTPTATYNSDRDNSFLQVHNCIQKDSKDSLHANTANRRTTPV
modifications: TCO*A (trans-cyclooct-2-en-L-lysine) at position 44
Regarding B1, the receptor recovery from desensitization, τrec (GluA1 alone 162.6 ms) is 62.3 ms.

B2: TARP γ2 with eGFP in the C-tail (natural protein)
chain: MGLFDRGVQMLLTTVGAFAAFSLMTIAVGTDYWLYSRGVCKTKSVSENETSKKNEEVMTHSGLWRTCCLEGNFKGLCKQIDHFPEDADYEADTAEYFLRAVRASSIFPILSVILLFMGGLCIAASEFYKTRHNIILSAGIFFVSAGLSNIIGIIVYISANAGDPSKSDSKKNSYSYGWSFYFGALSFIIAEMVGVLAVHMFIDRHKQLRATARATDYLQASAITRIPSYRYRYQRRSRSSSRSTEPSHSRDASPVGVKGFNTLPSTEISMYTLSRDPLKAATTPTATYNSDRDNSFLQVHNCIQKDSKDSLHANTANRRTTPV
With B2, the receptor recovery from desensitization, τrec (GluA1 alone 162.6 ms) turned out to be 57.1 ms.

B3: TARP γ8 with eGFP in the C-tail (natural protein)
chain: MESLKRWNEERGLWCEKGVQVLLTTIGAFAAFGLMTIAISTDYWLYTRALICNTTNLTAGDDGPPHRGGSGSSEKKDPGGLTHSGLWRICCLEGLKRGVCVKINHFPEDTDYDHDSAEYLLRVVRASSIFPILSAILLLLGGVCVAASRVYKSKRNIILGAGILFVAAGLSNIIGVIVYISANAGEPGPKRDEEKKNHYSYGWSFYFGGLSFILAEVIGVLAVNIYIERSREAHCQSRSDLLKAGGGAGGSGGSGPSAILRLPSYRFRYRRRSRSSSRGSSEASPSRDASPGGPGGPGFASTDISMYTLSRDPSKGSVAAGLASAGGGGGGAGVGAYGGAAGAAGGGGTGSERDRGSSAGFLTLHNAFPKEAASGVTVTVTGPPAAPAPAPPAPAAPAPGTLSKEAAASNTNTLNRKTTPV
Turning to B3, the receptor recovery from desensitization, τrec (GluA1 alone 162.6 ms) was found to be 40.9 ms.

B4: ncAA-tagged TARP γ8 S72* with eGFP in the C-tail (natural protein)
chain: MESLKRWNEERGLWCEKGVQVLLTTIGAFAAFGLMTIAISTDYWLYTRALICNTTNLTAGDDGPPHRGGSGKSEKKDPGGLTHSGLWRICCLEGLKRGVCVKINHFPEDTDYDHDSAEYLLRVVRASSIFPILSAILLLLGGVCVAASRVYKSKRNIILGAGILFVAAGLSNIIGVIVYISANAGEPGPKRDEEKKNHYSYGWSFYFGGLSFILAEVIGVLAVNIYIERSREAHCQSRSDLLKAGGGAGGSGGSGPSAILRLPSYRFRYRRRSRSSSRGSSEASPSRDASPGGPGGPGFASTDISMYTLSRDPSKGSVAAGLASAGGGGGGAGVGAYGGAAGAAGGGGTGSERDRGSSAGFLTLHNAFPKEAASGVTVTVTGPPAAPAPAPPAPAAPAPGTLSKEAAASNTNTLNRKTTPV
modifications: TCO*A (trans-cyclooct-2-en-L-lysine) at position 72
Turning to B4, the receptor recovery from desensitization, τrec (GluA1 alone 162.6 ms) was 45.8 ms.
